Source: PMC8420576 (The EMBO Journal, 2021)

Target: T1, SARS-CoV-2 RBD, B.1.427/B.1.429/Epsilon/Californian variant (L452R) (SARS-CoV-2, Epsilon/Californian …, L452R)
T1 construct: also called Epsilon/Californian RBD mutant; Californian L452R mutation
Assay: BLI
Conditions: both partners purified

B1: VHH antibody Re5D06, labeled with two PEG11-biotins (VHH)
VHH: QVQLVESGGGLVQPGGSLRLSCAASGITLDYYAIGWFRQAPGKEREGVSRIRSSDGSTNYADSVKGRFTMSRDNAKNTVYLQMNSLKPEDTAVYYCAYGPLTKYGSSWYWPYEYDYWGQGTQVTVSS
notes: also called Re5D06 (immobilized on BLI sensors)
With B1 the Kd was about 0.4 nM.
